The results in this text go back to patent US20050112698A1 (Bayer, published 2005).

The labels stand for the following.
B1: Fab A12 (Fab, V domains shown)
VH: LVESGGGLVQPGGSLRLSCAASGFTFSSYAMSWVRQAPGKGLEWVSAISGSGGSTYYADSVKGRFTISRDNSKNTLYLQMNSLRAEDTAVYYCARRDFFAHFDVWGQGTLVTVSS
VL: QMTQSPSSLSASVGDRVTITCRASQGIRGYLGWYQQKPGKAPKLLIYSASSLQSGVPSRFSGSGSGTDFTLTISSLQPEDFATYYCGEWAYMPYTFGQGTKVEIKR
notes: Light chain CDR3 variant of Fab A2-G8; It carries FLAG and Strep tags
B2: Fab D5 (light chain CDR3 variant of A2-G8) (Fab, V domains shown)
VH: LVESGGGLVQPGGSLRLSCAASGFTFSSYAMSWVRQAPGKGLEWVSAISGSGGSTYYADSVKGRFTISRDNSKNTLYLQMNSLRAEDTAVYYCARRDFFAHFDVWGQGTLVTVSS
VL: B1 VL with G87A, E88S, W89Q, A90G, Y91W
notes: It carries FLAG and Strep tags
B3: Fab B1 (Fab, V domains shown)
VH: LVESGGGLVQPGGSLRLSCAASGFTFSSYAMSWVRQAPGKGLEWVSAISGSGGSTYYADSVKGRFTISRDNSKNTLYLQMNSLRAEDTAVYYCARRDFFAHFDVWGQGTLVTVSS
VL: B1 VL with G87A, W89Y, A90I, Y91R
notes: as for B2
B4: Fab F5L (Fab, V domains shown)
VH: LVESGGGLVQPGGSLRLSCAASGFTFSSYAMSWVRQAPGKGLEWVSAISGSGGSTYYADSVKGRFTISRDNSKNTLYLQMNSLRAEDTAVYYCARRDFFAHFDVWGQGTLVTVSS
VL: B1 VL with G87S, E88A, W89H, A90G, Y91F
notes: as for B1
B5: Fab D6L (Fab, V domains shown)
VH: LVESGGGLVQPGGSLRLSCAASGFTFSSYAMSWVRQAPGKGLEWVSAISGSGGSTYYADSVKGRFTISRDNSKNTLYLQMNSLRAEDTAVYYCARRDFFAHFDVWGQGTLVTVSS
VL: B1 VL with A90L, Y91S
notes: as for B1
B6: Fab B9 (Fab, V domains shown)
VH: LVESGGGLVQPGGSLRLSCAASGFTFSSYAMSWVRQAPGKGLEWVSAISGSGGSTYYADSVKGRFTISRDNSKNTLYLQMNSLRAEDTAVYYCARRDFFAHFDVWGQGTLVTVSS
VL: B1 VL with G87A, E88G, W89T, A90G, Y91F
notes: It carries FLAG and Strep tags; also called B9L
B7: Fab A8 (light chain CDR3 variant of A2-G8) (Fab, V domains shown)
VH: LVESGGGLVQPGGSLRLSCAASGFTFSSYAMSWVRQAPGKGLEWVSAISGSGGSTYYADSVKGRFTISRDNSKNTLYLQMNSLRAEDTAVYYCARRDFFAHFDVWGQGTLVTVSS
VL: B1 VL with G87C, E88S, W89A, A90G, Y91F
notes: as for B2

Where a chain is given by its changes, count along the chain named. Names may count otherwise. Some results are limits rather than exact numbers.

T1 sequence (P21583 other isoform, or with tags, fused parts or gaps limits assumed): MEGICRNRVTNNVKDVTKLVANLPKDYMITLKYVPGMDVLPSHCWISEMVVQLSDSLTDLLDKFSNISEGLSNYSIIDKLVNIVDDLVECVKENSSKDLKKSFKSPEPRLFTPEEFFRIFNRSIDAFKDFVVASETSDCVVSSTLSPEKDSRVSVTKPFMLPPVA

The first assay has as its target T1, human Stem Cell Factor (human, UniProt P21583 26-189). Put plainly: cell-based or functional assay.
In the case of B1, the “TF-1 proliferation IC50, fold lower than the A2-G8 Mab” value was at least 6 fold.

Regarding B2, the “TF-1 proliferation IC50, fold lower than the A2-G8 Mab” value is at least 6 fold.

As to B3, the “TF-1 proliferation IC50, fold lower than the A2-G8 Mab” value is at least 6 fold.

Regarding B4, the “TF-1 proliferation IC50, fold lower than the A2-G8 Mab” value is at least 6 fold.

On to B5, for which the “TF-1 proliferation IC50, fold lower than the A2-G8 Mab” value was at least 6 fold.

The next assay deals with T1, human Stem Cell Factor. Kind of assay: SPR BIAcore 2000, Fab over 150 RU immobilized hSCF. The method, then: (§1) Affinity measurements were carried out on a BIAcore 2000 (Biacore) at 25° C. […] Purified Fab's were diluted in HBS-EP running buffer at concentrations ranging from 1.95 to 125 nM. A volume of 100 μl was injected using a flow rate of 50 μl/min in Kinject mode. After a 10 min dissociation, 50 μl of 10 mM Glycine, pH 2.5 and 25 μl of 10 mM Glycine, pH 2.0 was injected using a flow rate of 100 μl/min. All samples were run in duplicate. […] Cynomologus monkey SCF was diluted in HBS-EP running buffer at concentrations ranging from 15.6 to 500 nM and 150 μl injected at a flow rate of 50 μl/min. After a 15 min dissociation, 50 μl of 10 mM Glycine, pH 2.5, and 25 μl of 10 mM Glycine, pH 1.5 was injected using a flow rate of 100 μl/min. All samples were run in duplicate. The data was globally fit to the 1 to 1 binding model using BIAevaluation software. The raw experimental data were corrected for instrumental and bulk solvent artifacts by double referencing using both activated and blocked surfaces as controls.
(§2) To evaluate the binding properties of anti-SCF Fabs selected from affinity optimization of the CDR3 loop with SCF, the real time interaction was measured using surface plasmon resonance with the BIAcore 2000. […] The improvement in Kd's are primarily governed by a substantial reduction in the off-rate (koff). […] The affinity constants for Fab binding to human SCF were slightly lower than those Kd's for cynomologus monkey SCF. The panning design, with lower antigen concentrations and extensive washing steps, favors off-rate selection. The affinity of the A2-G8 clone in an IgG vector was measured using the IgG immobilized to the surface of the CM5 chip.
Consider B1, for which the Kd was 1.8 nM, the koff came to 0.00046 s⁻¹ and the kon came to 250000 M⁻¹ s⁻¹.

The molecule B6 registered a Kd of 1.7 nM, a koff of 0.0005 s⁻¹ and a kon of 300000 M⁻¹ s⁻¹.

As to B2, the Kd was 0.8 nM, the koff turned out to be 0.00024 s⁻¹ and the on-rate constant (kon) stood at 290000 M⁻¹ s⁻¹.

Take B3: the Kd came out at 1.6 nM, the off-rate constant (koff) was 0.0005 s⁻¹ and the kon worked out at 320000 M⁻¹ s⁻¹.

As for B4, binding was put at a Kd of 1.3 nM, the off-rate constant (koff) turned out to be 0.00022 s⁻¹ and the kon is 170000 M⁻¹ s⁻¹.

In turn, B5 yielded a dissociation constant (Kd) of 1.4 nM, a koff of 0.00027 s⁻¹ and a kon of 190000 M⁻¹ s⁻¹.

The target in another assay is T2, Cynomolgus Monkey SCF (cynomolgus monkey, UniProt A0A7N9CAX5 26-189). Put plainly: cell-based or functional assay.
Take B7: the “IC50 TF-1 cynoSCF Assay” value was 4.64 µg/mL.

B1: the “IC50 TF-1 cynoSCF Assay” value worked out at 1.65 µg/mL.

Take B6: the “IC50 TF-1 cynoSCF Assay” value was 5.45 µg/mL.

Turning to B2, the “IC50 TF-1 cynoSCF Assay” value was 0.48 µg/mL.

For B3, the “IC50 TF-1 cynoSCF Assay” value is 2.07 µg/mL.

Turning to B4, the “IC50 TF-1 cynoSCF Assay” value was 0.78 µg/mL.

For B5, the “IC50 TF-1 cynoSCF Assay” value was 1.46 µg/mL.

In a further assay the target is T1, human Stem Cell Factor. Kind of assay: cell-based or functional assay. The source holds these as a separate data set.
As for B1, the “IC50 TF-1 huSCF Assay” value amounted to 0.38 µg/mL.

For B6, the “IC50 TF-1 huSCF Assay” value is 2.01 µg/mL.

B2: the “IC50 TF-1 huSCF Assay” value came to 0.09 µg/mL.

Consider B3, for which the “IC50 TF-1 huSCF Assay” value came out at 0.14 µg/mL.

On to B4, for which the “IC50 TF-1 huSCF Assay” value came to 0.17 µg/mL.

Regarding B5, the “IC50 TF-1 huSCF Assay” value is 0.19 µg/mL.

For another assay, the target named is T2, Cynomolgus Monkey SCF. Kind of assay: SPR BIAcore, 5000 RU immobilized cSCF, off-rate ranking. The method, then: (§3) TABLE 12 Sequences of the CDR3 Vk1 Region of Selected Antibody Clones with Comparison of koff and SCF Inhibitory Activity The off-rates were determined using a high density surface CM5 chip (5000 RU of immobilized cSCF) on BIAcore and are shown with comparison to the original A2-G8 clone. […] The IC₅₀ in the TF-1 proliferation assay was based on an average of two assays with the exception of the A2-G8-IgG (n = 5).
Analysis of Fab binding to cSCF was performed by surface plasmon resonance using a BIAcore 2000 (Biacore, Piscataway, N.J.), according to the manufacturer's instructions and a CM5 chip (Biacore) coated with cSCF. For amine coupling, a research grade CM5 chip was activated using the standard NHS/EDC procedure. Cynomologus monkey SCF was diluted to 20 μg/ml in 10 mM NaAcetate, pH 5.0, and a total of 5000 RU's were coupled to channel 2 of the sensor surface. The remaining active sites were quenched by the addition of 1M ethanolamine, pH 8.0. Channel 1 was subjected to the coupling procedure in the absence of protein and was used as a reference surface. Extracts were diluted 1/5 in HBS-EP running buffer and injected for 2 min using a flow rate of 20 μl/min. The surface was regenerated by two consecutive injections of 25 μl, 10 mM glycine, pH 2.5, using a flow rate of 100 μl/min. The koff was calculated from a single concentration of Fab using BIAevaluation software (Biacore).
Take B7: the koff stood at 0.00075 s⁻¹.

In turn, B1 yielded a koff of 0.00044 s⁻¹.

As for B6, the koff worked out at 0.00048 s⁻¹.

Take B2: the dissociation rate constant (koff) was 0.00027 s⁻¹.

With B3, the dissociation rate constant (koff) was 0.00041 s⁻¹.

The molecule B4 returned a koff of 0.00024 s⁻¹.

B5 gave a koff of 0.0003 s⁻¹.

Another assay has as its target T2, Cynomolgus Monkey SCF. Kind of assay: SPR BIAcore 2000, Fab over 185 RU immobilized cSCF. The method, then: as §1, §2
The molecule B1 had a Kd of 5.5 nM, a koff of 0.00087 s⁻¹ and a kon of 160000 M⁻¹ s⁻¹.

Consider B6, for which the Kd was determined as 4.3 nM, the off-rate constant (koff) turned out to be 0.00079 s⁻¹ and the kon is 190000 M⁻¹ s⁻¹.

In the case of B2, the affinity, expressed as Kd, was 3.6 nM; the off-rate constant (koff) is 0.00069 s⁻¹; the kon stood at 190000 M⁻¹ s⁻¹.

As to B3, binding was put at a Kd of 4.9 nM, the koff was 0.00104 s⁻¹ and the kon stood at 210000 M⁻¹ s⁻¹.

B4 yielded a Kd of 2.6 nM, a koff of 0.00028 s⁻¹ and a kon of 110000 M⁻¹ s⁻¹.

For the molecule B5, the affinity, expressed as Kd, was 5.4 nM; the koff came out at 0.00073 s⁻¹; the kon worked out at 130000 M⁻¹ s⁻¹.

The target of the next assay is T2, Cynomolgus Monkey SCF. Put plainly: competition ELISA: cSCF binding to coated human SCFR, Fab 3.1 µg/ml. The method, then:
The extracts containing Fab were also tested for the ability to inhibit SCF binding to the SCF receptor. ELISA plates were coated overnight with 2 μg/ml human SCFR (R&D Systems, Minneapolis, Minn.) in PBS at 4° C. After washing with TBS-T, the plate was blocked with 5 mg/ml BSA in PBS. The extract was diluted 1/5 in PBS buffer containing 12.5 ng/ml cSCF and 1 mg/ml BSA. After a 1 hr incubation at room temperature, 100 μl was added to the blocked ELISA plate and incubated an additional hour. The plate was washed 5 times with TBS-T, and 100 μl of a 0.4 μg/ml solution of anti-SCF (R&D Systems) in 1 mg/ml BSA in PBS was added. After 1 hour the plate was washed and incubated with anti-Mouse-HRP (Sigma, St. Louis, Mo.). The plate was developed with BM Blue POD substrate (Roche Diagnostics, Chicago, Ill.) and read at 370 nm.
as §3
For orientation: ELISA stands for enzyme-linked immunosorbent assay.
For the molecule B7, the “% Inhibition SCF Binding ELISA Assay” value was 70%.

Take B1: the “% Inhibition SCF Binding ELISA Assay” value was 68%.

With B6, the “% Inhibition SCF Binding ELISA Assay” value was 70%.

B2: the “% Inhibition SCF Binding ELISA Assay” value was 75%.

In the case of B3, the “% Inhibition SCF Binding ELISA Assay” value was found to be 65%.

Consider B4, for which the “% Inhibition SCF Binding ELISA Assay” value stood at 85%.

As for B5, the “% Inhibition SCF Binding ELISA Assay” value came to 70%.

One may read the Kd as the constant that tells how readily two partners part at equilibrium. One may read the koff as a measure of how fast the partners let go of each other. As a reminder, the kon is a measure of how fast the partners come together.
